Laboratory results published in the DeepSol protein solubility set.

Assay: soluble on expression in E. coli; label from the status in PepcDB or PDB records

| Sequence | soluble on expression in E. coli |
| --- | --- |
| MSLTDSKYISIKGARVNNLKNIDVNIPRNKLVVITGLSGSGKSSLAFDTLYAEGQRRYVESLSSYARQFLGRMSKPECDFIKGIPPAIAIEQKVNSRNPRSTVGTSTEIYEYLRLLYARVGKTYSPVSGEEVKKHSIEDIVNCMLSYPEGTRYTVLTQIYLHDGRTLEQQLEIDRKQGFNRLEVNGEMVRIDEYAAGKEDVVYLLVDRMTAAKSKDAISRLTDSAETAMYEGDGMCMLRFYQPDGTTRLHTFSTKFEADGMTFEEPNDQMFSFNSPIGACPVCEGFGKVIGIDEHLVVPNRSLSVYDGAIVCWRGEKMGEWREELIHNAEKFNFPIFTPYYELTDEQRRVLWEGNQYFHGINDFFKMLEENQYKIQYRVMLARYRGKTLCPKCHGTRLKPEAGYVRVGGKNISELVDLPITELQKFFDSLTLNEHDQAVARRILTEINSRIRFLIDVGLGYLTLNRLSNSLSGGESQRINLATSLGSSLVGSLYILDEPSIGLHSRDTDRLVHVLRQLQQLGNTVVVVEHDEEIIRAADYIIDIGPNAGRLGGQVVYEGDMKDLKKGSNSYTVKYLLGEETIPVPEHRRPWNNYIEIKGARENNLKGVDARFPLNVMTVVTGVSGSGKSTLVRDIFYRALKRELDECSERPGEFVSIEGDLRNLRNVEFVDQNPIGKSSRSNPVTYIKAYDEIRKLWADQPLAKQMGYTAGHFSFNNEGGRCEECKGDGTITVEMQFMADLVLECESCHGKRFKADTLEVKFQDKNIYDILEMTVNQAIEFFTEHGQKKVVKKLIPLQDVGLGYIKLGQSSSTLSGGENQRVKLAYYLSQEKADPTLFIFDEPTTGLHFHDIRKLLDAFDALIRRGHSIVIIEHNMDVIKCADYVIDLGPEGGDKGGNIVATGTPEEVAACAASYTGQFLQEKLNHLEGHHHHHH | soluble |
| MSLTEEQLLFRIALTHVKGVGSVLARQLLSAMGSPEAIFSDRKELVQRLPKAPRRLLDAIFSPSVMEEARRKLDQALKAGLNMYFITDDNYPYRLKECVDAPILLYSKGNVDLSPRRVLSIVGTRNITAYGRTATERIVSGLAETIPDLLIVSGLAYGVDVAAHKAALDNGLPTVAVLAHGLDRIYPSGHRSIAMEMLRNGGLLTDYPMGTEPERFNFVGRNRIVAGLSDATLVIESAEKGGSLITAGLAFGYNREVLALPGRATDSRSAGCNALIRDQKAALVSSAQDVLTLLDWSSTIDAKPQTEGHHHHHH | soluble |
| MSLTEFPGIVKEYEAITRYCGFNSIEAGKTMGLSPYGEPNPEIPPMFVNGFGNRNLFKPNYPNGAYVIEDRYKIIRDDYISHNGEVGTGEYTQVQKDLAYAIQKESEDQMCALIQKAHEMTGEKNIVICGGYGLNCVANYKFKQRFPNLNIYVEPISHDGGTSMGGAYHVYYNDYVKTGKESRKVEPPKTIYYGPQYDPDTYLNYIHEYPSAKVTDASYDSVARLIREGNIVTIFQGRSEAGPRALGNRSILFDPTIKDGKDIVNSVKHREFFRPFACSILADKVHDWFDLAGMDDSPSMMYAVDALPGVAEKIPSVIHVDNTCRIQTVTKEQNEHYYNLISAFEKLSNTPILFNTSFNLGGDPLVEDIDDALDTLSTSDINYMYLPEIQKLVELKTREMQDTRQQPINEGHHHHHH | soluble |
| MSLTELPKEFLEDIEEILKDEYDDFIKSYEESKTTGLRINTLKIDKKKLFDLELFDLNQIPWAEEGFYYDDKIDRPGRNPLHEAGAYYLQEPSAMSVIPKADIKEGEKVLDMCAAPGGKSTYILSKLNDTGLLVSNEINASRIKALGENLERFGARNCIITNTDSNSLRKTFNGYFDKVIIDAPCSGQGMFRKDEVAISDWSYAKVVECQSIQKEIIRDGYKMLKKDGILIYSTCTFSREENEHVINEFISEYPHAELIEMERLWPHKIKGEGHFVAKIKKLEEEECNVKELKIKNLDKEIKDYREFEKKFLKVDFYSNKKNKFYLRGENLYLLPEIYPDTKKLKVLRYGLHLGVLKKNRFEPSHALSHYLKVEDVKNVENFSVQSESILKYLKGDVVNSNDSRGWVLVSVEGIPLGWGKESSGVIKNHYPKGLRKVEGHHHHHH | soluble |
| MSLTGGVISGLGKGTITSSIGHILKDSGIKVSAVKIDPYINYDAGTMNPYQHGEVFVLDDGGEVDLDLGNYERFMNINLSRDNNITTGKVYLEVIQKERHGDYLGKTVQIIPHITDEIKRRIREVARTSGADVVLIEVGGTVGDIESMPFLEALRQLKREEQNVVFAHVTLVPEIGPTMEQKTKPTQHSVKALREIGIQPDIIFARSKQKLTEETKSRISLFTDVPVEGIISVSDVENVYLLPQMMVNEGLITRLSKLLNMNIEYRDSWTSYAENIRHPRDRVKVAIVGKYVDLHDAYISHKEAFSHVTGNTGIAVDIMWIDSEKVKNDQSVLSEADAILIPGGFGYRGVEGKIAATRYAMENGVPFLGICLGFQVAVIAVARYVLGLDGANSTEFDEKTKYPVVDILPEQRGVKDMGGTMRLGSKKVVIKKGTLAHRIYGADVIYERHRHRYEVNPDYIDMIEKAGFKFSATDEEGIRMEILERPGDESFIATQYHSEFKSRPLDPSKVHLHLVEQALIFKHRRMGENHEGYATAASSQGQEGHHHHHH | soluble |
| MSLTGSSSITRTCAVIFSSGFRFMDLLHAVPYAALWHGRFEHPVLRIACILSIAAGNRVPICFESITRRIRPMTLHRPAPHPVFSLAETSGPVLGDLPGWKLSDLYPSGDSPEYKRDLEKAASMAAAFEAKWKDKLESAAKAKGEDGIGAALKDYEALDDLIGRIGSFAGLTYFSDTSNPANGKLYGDAQAKLTEISAHLLFFTLELNRIDDAVMDACMANDAAAGHYRPWLVDLRKDKPHQLDDQLEQLFLEKSMTSAAAFNRLFDETMADLRFDIDGASLSLEVTLNMLQEPEPETRRKAAEALSATFKDNLRVFTLITNTLAKDKDISDRWRNFEDIADSRHLANRVERDVVDALAAAVKKAYPRLSHRYYAMKAKWLGMEQMNYWDRNAPLPDTSNTIIPWDEAKDTVLSAYGNFAPEMADIARRFFDEEWIDAPARPGKAPGAFAHPTVPSAHPYVLVNYLGKPRDVMTLAHELGHGVHQVLAGQQGALMCATPLTLAETASVFGEMLTFRKLLDDTKDIRERKAMLARKVEDMINTVVRQIAFYEFERKLHTARKEGELTSEQIGELWLSVQAESLGPAIRISEGYETWWTYIPHFIHSPFYVYAYAFGDCLVNSLYAVYQKAEAGFQEKYFELLKAGGTKHHSELLKPFGLDATDPSFWDKGLSMIEGLIDELEELDRKQAEGHHHHHH | soluble |
| MSLTHEEAVAIHKEKMEALEMQMKLILVLDLDQTVLHTTYGTSSLEGTVKFVIDRCRYCVKLRPNLDYMLRRISKLYEIHVYTMGTRAYAERIVEIIDPSGKYFDDRIITRDENQGVLVKRLSRLFPHDHRNIVILDDRPDVWDYCENLVLIRPFWYFNRVDINDPLRLKRKIEKEAGENKALEEGHHHHHH | not soluble |
| MSLTIKEIADKVNLSPTTVSNVIHGRKGKVSPDNYKKISRALEESKYVSNMGGRLLGRHGSKIIAVILNYERRSEMNVVSDPFYNQIVGFLEEEIRKKSYFMMLYTSGSVTESLRLATAWDIEGLIVLGSHPDDAKNFIKQQKRPVAFIDTYVDKESMTDDFINVGLQDFKGGYQITNYLIGLGHRRIGFFADGNQLLGVDQQRFAGFKKALSEADINLENPGFFGLDYRTNQRHIFLKKFSETKLKDYTALVFTSDFLAVDAINVFLDNGFKVPEDISITGFDHNIFSEQCRPKLTTIGQNVQKKAVLAVDFLTERIQSKQAIKKINLLLDAELIVQDSTAREGHHHHHH | soluble |
| MSLTKDILILAVETSCDETSVSVIKNGRDILSNTVLSQIESHKRFGGVVPEVASRHHVEGITTTINEALVDADVSMEDIDAIAVTEGPGLIGALLIGVNAAKALAFAYDKPLIPVHHIAGHIYANHIEEPLTFPLIALIVSGGHTELVYMKDHLSFEVIGETRDDAVGEAYDKVARTIGLNYPGGPQVDRLAAEGEDTYSFPRVWLDKDSYDFSFSGLKSAVINQLHNQRQKNIPIIEANVATSFQNSVVEVLTFKAIQACKEYSVQRLIVAGGVASNKGLRQSLADQCKVNDIQLTIPSPKLCTDNAAMIGVAGHSLYQQGRFADLALNGHSNIDLEEYSAEEGHHHHHH | soluble |
| MSLTKTEGKTASAAVKDILLSNPDGLREVIRTVMQEVLEAEMDEALGAAKGERTPERLGYRSGHYGRTLITRVGKLELRVPQDRSGHFSTELFERYQRSERALVATLAEMYVQGVSTRKVKAITEELCGHAFSASSISAINKRLDESLKAFAERSLQEPFAYLILDARYEKVREAGVVMSQAVLIAVGIDWDGRRQILSVEMAGRESRCAWKNFLVRLKGRGLKGVELVVSDDHAGLVAAIGEVIPEAAWQRCYVHFLRNALDHLPRKHGDDCLQELRWLYDRRDLDEAKADLAAWLGKWSVRYPRLTSWVEETIEQTLTFFRLPRQHHKHLKSTNMLERLNEEIRRRTYVVRIFPNTESCLRLVRALAVETHENWMEANRYINMDDLREHKKLALRQAAEGHHHHHH | soluble |
| MSLTLADKVVYEEEIQKSRFIAKAAPVASEEEALAFLAENREPEATHNGHAYKIGLLYRFSDDGEPSGTAGRPILHAIEAQGLDRVAVLVVRYFGGVKLGAGGLVRAYGGVAAEALRRAPKVPLVERVGLAFLVPFAEVGRVYALLEARALKAEETYTPEGVRFALLLPKPEREGFLRALLDATRGQVALE | soluble |
| MSLTLDLRESEIVEAVYESNHTWVSVEAKIDYELDPTVLFHLTEENAGDRFYYKKNDNKTSFFGYHAITRFKNDFENKQSIFREWQKYKSDIELIHPSSDKHHLKICGGFQFSMHKSGDEWREFGINHFILPEVLITMENGVSYITYTVKAEQFEIEQFKALIAHLTQNTIDSEFEIGNIKRIEDIYKDEWRDLVKDTIDVLDEHKKIVLARKRLVMFDKNINIPYILQKASQGEHNSYLFVLESQDSIFFSQTPEQLMEVNNGILSTKAVAGTIKRTHQDEVDKENIQAFLNDDKNLNEHRFVVESILNDIAPYVRDITFNETPQILTNDHLYHLYTKIKGQLENDSYIGLLDNLHPTPALGGYPKAEAIEYIEQNEFGTRGLYGAPVGYIDMNDDCEFIVAIRSMLIKKNQATLFAGCGIVKNSDADSEVEETAVKFNPMMKALGVEEYEGHHHHHH | soluble |
| MSLTLGIAFVGSGFSAKFHLRGLVGVRNVEVKGVYSRNLNSSKEFAMLSEQLGLGKPKVYSDISKMLSDKEINAVWLTVPNDVHLEYTKLIAEEVSQGRSNIHGITIEKPLARNVKEAKEMIRLVEKAGLLHGYLENQIFMPSVVRAREAIWEIGSRNSGRPYLARAAEEHSGPHNSWFWRPTISGGGALIDMTCHSLEATRFLLTDPAKTKSSLKPKTVYAETKTLKWNKKEYAQYLKEKYNVDFLKEPAEDYALTIVTYEDDLGNSVLAETRTSWNYVGPGLRLSVEVLGPEYSVNINTLQSELSVFFSRNIKLPQSEAFVEKQNADQGLMPIILDEAVVYGYQGEDRHMVESFISRKMPFENWYDGLLIVQLMMHAYLSAENGRKISFDPQKVEDFIPKVARGLYSAEGHHHHHH | soluble |
| MSLTMPAESAATVRGRRYPADPEWFCDFRTFPVQGLGPEVGVHRRDPSSVLTVDGRYHVWYTRSTGETDGFGTGDPMAKVFPWDWSEIWHATSDDGATWVEQGRALGRGEPGSYDDRSVFTPEVLEHQGWFYLVYQVIRSPYALRSFESIAMAKAPSPDGPWVRSPQPILRPQADGEWAGEEDNRLSVVSQGSFDSHKVHDPILVPFQGRFFLYYKGEQMGEGFSAGGRTTRWGLAIADDIEGPYHRCPANPVTNSGHETCVWRYGDGIAAMLTTDGPERNTIQFAPDGINFEIMAHIANPPVATGPLRLPDHAVAPLDGVRWGLCHDVTASWHYIQGFAADERQKMFYTRGLSPETAESAEADALPAPHEKEGHHHHHH | soluble |
